Reference: the supplement of paper PMC9112550, “Optimization of the antimicrobial peptide Bac7 by deep mutational scanning” (BMC Biology, 2022)

The sequences below were run on Escherichia coli TOP10 (assay: shrunken log2 fold change of peptide-encoding DNA abundance (4.5 h post-induction vs induction); higher = less antimicrobial activity (less host growth inhibition)). Conditions: time post-induction: 4.5 h; library: site-saturation at positions 5, 18, 19, 20.
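Further: peptides expressed intracellularly from a pBAD plasmid library in pooled LB shake-flask culture, induced with 0.3% L-arabinose, DNA abundance read by NGS, three biological replicates, DESeq2 with apeglm shrinkage.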

| Sequence | shrunken log2 fold change |
| --- | --- |
| RRIRMRPPRLPRPRPRPPITPRP | -0.109 |
| RRIRIRPPRLPRPRPRPHKIPRP | -0.462 |
| RRIRERPPRLPRPRPRPGMGPRP | -0.0461 |
| RRIRQRPPRLPRPRPRPRACPRP | 0.344 |
| RRIRIRPPRLPRPRPRPIQVPRP | -0.071 |
| RRIRYRPPRLPRPRPRPHIKPRP | -0.887 |
| RRIRVRPPRLPRPRPRPLRAPRP | 0.719 |
| RRIRDRPPRLPRPRPRPRNMPRP | -0.602 |
| RRIRCRPPRLPRPRPRPSHQPRP | -1.04 |
| RRIRDRPPRLPRPRPRPWHWPRP | 0.00118 |
| RRIRSRPPRLPRPRPRPHYDPRP | -0.735 |
| RRIRCRPPRLPRPRPRPINFPRP | -0.235 |
| RRIRRRPPRLPRPRPRPQPAPRP | 0.387 |
| RRIRVRPPRLPRPRPRPELIPRP | 0.0562 |
| RRIRFRPPRLPRPRPRPLWPPRP | 0.264 |
| RRIRWRPPRLPRPRPRPKQIPRP | 0.143 |
| RRIRDRPPRLPRPRPRPLKYPRP | -0.529 |
| RRIRMRPPRLPRPRPRPRKEPRP | 0.704 |
| RRIRYRPPRLPRPRPRPAGRPRP | 0.104 |
| RRIRDRPPRLPRPRPRPKSHPRP | -0.204 |
| RRIRIRPPRLPRPRPRPWSQPRP | -0.738 |
| RRIRVRPPRLPRPRPRPFNPPRP | -0.484 |
| RRIRFRPPRLPRPRPRPHRQPRP | -0.228 |
| RRIRGRPPRLPRPRPRPRNYPRP | 0.00522 |
| RRIRTRPPRLPRPRPRPINEPRP | -0.405 |

| Sequence | shrunken log2 fold change |
| --- | --- |
| RRIRMRPPRLPRPRPRPVSYPRP | -0.00671 |
| RRIRVRPPRLPRPRPRPENLPRP | -0.111 |
| RRIRSRPPRLPRPRPRPGWPPRP | 0.692 |
| RRIRMRPPRLPRPRPRPTRWPRP | 2.21 |
| RRIRVRPPRLPRPRPRPCYRPRP | -0.00925 |
| RRIRYRPPRLPRPRPRPSGWPRP | -0.00312 |
| RRIRHRPPRLPRPRPRPYRIPRP | -0.231 |
| RRIRYRPPRLPRPRPRPQQSPRP | -0.454 |
| RRIRCRPPRLPRPRPRPGKLPRP | -0.111 |
| RRIRARPPRLPRPRPRPNMFPRP | -0.0712 |
| RRIRVRPPRLPRPRPRPILNPRP | -0.287 |
| RRIRWRPPRLPRPRPRPAGKPRP | 0.0305 |
| RRIRLRPPRLPRPRPRPRSTPRP | -0.00899 |
| RRIRGRPPRLPRPRPRPWHDPRP | -0.178 |
| RRIRFRPPRLPRPRPRPLRRPRP | 0.773 |
| RRIRYRPPRLPRPRPRPRQQPRP | 0.226 |
| RRIRKRPPRLPRPRPRPTGHPRP | 0.348 |
| RRIRQRPPRLPRPRPRPIKHPRP | -0.12 |
| RRIRARPPRLPRPRPRPDCGPRP | 0.966 |
| RRIRHRPPRLPRPRPRPCMMPRP | -0.0344 |
| RRIRNRPPRLPRPRPRPKHNPRP | -0.434 |
| RRIRVRPPRLPRPRPRPMWGPRP | -0.174 |
| RRIRDRPPRLPRPRPRPNLDPRP | -0.103 |
| RRIRQRPPRLPRPRPRPWLGPRP | -0.0417 |
| RRIRFRPPRLPRPRPRPVCPPRP | 0.311 |

| Sequence | shrunken log2 fold change |
| --- | --- |
| RRIRLRPPRLPRPRPRPLNKPRP | -0.264 |
| RRIRYRPPRLPRPRPRPVWAPRP | 0.205 |
| RRIRWRPPRLPRPRPRPSETPRP | 0.0208 |
| RRIRWRPPRLPRPRPRPMLLPRP | 0.259 |
| RRIRKRPPRLPRPRPRPWAKPRP | 0.0651 |
| RRIRNRPPRLPRPRPRPIYIPRP | 0.0152 |
| RRIRGRPPRLPRPRPRPATIPRP | 0.138 |
| RRIRVRPPRLPRPRPRPSIIPRP | -0.384 |
| RRIRNRPPRLPRPRPRPFASPRP | -0.0512 |
| RRIRVRPPRLPRPRPRPQKLPRP | -0.0565 |
| RRIRVRPPRLPRPRPRPSRGPRP | 0.413 |
| RRIRQRPPRLPRPRPRPPSKPRP | 0.353 |
| RRIRKRPPRLPRPRPRPLVTPRP | 0.24 |
| RRIRMRPPRLPRPRPRPANPPRP | 0.267 |
| RRIRERPPRLPRPRPRPPGQPRP | 0.104 |
| RRIRWRPPRLPRPRPRPAGQPRP | 0.218 |
| RRIRFRPPRLPRPRPRPQRSPRP | -0.105 |
| RRIRQRPPRLPRPRPRPKETPRP | 0.00762 |
| RRIRRRPPRLPRPRPRPVDIPRP | -0.0798 |
| RRIRSRPPRLPRPRPRPPTYPRP | -0.243 |
| RRIRHRPPRLPRPRPRPCRNPRP | -0.166 |
| RRIRFRPPRLPRPRPRPFTQPRP | 0.0192 |
| RRIRVRPPRLPRPRPRPYYNPRP | -0.548 |
| RRIRNRPPRLPRPRPRPRMIPRP | 0.0468 |
| RRIRFRPPRLPRPRPRPWYSPRP | -0.0415 |
